Substitutions are numbered along the chain they refer to. Names and notes keep the numbering of the source.
T1: Escherichia coli inclusion body-associated protein B (Escherichia coli, UniProt P0C058 1-142)
T1 construct: Small heat shock protein IbpB of Escherichia coli; also called IbpBEc; His-IbpBEc; source: purified with Ni-NTA agarose upon denaturation by 6 M urea
T1 sequence (looked up): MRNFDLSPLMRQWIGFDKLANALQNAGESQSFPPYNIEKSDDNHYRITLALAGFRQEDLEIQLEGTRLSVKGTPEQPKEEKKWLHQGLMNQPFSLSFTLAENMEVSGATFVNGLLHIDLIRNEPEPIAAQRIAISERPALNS

B1: Escherichia coli inclusion body-associated protein A, wild type (natural protein, UniProt P0C054 1-137, looked up)
chain: MRNFDLSPLYRSAIGFDRLFNHLENNQSQSNGGYPPYNVELVDENHYRIAIAVAGFAESELEITAQDNLLVVKGAHADEQKERTYLYQGIAERNFERKFQLAENIHVRGANLVNGLLYIDLERVIPEAKKPRRIEIN
notes: Small heat shock protein IbpA of Escherichia coli, expressed from pCA24N-ibpAEc; also called IbpAEc; IbpAEc-WT; source: E. coli BW25113ΔAB, overexpressed (0.5 mM IPTG), purified (anion exchange chromatography)
B2: Escherichia coli inclusion body-associated protein A, R93A mutant (natural protein, UniProt P0C054 1-137, looked up)
chain: B1 chain with R93A
notes: Small heat shock protein IbpA of Escherichia coli with R93A, made by site-directed mutagenesis of pCA24N-ibpAEc; also called IbpAEc-R93A; IbpA-R93A; source: E. coli BW25113ΔAB, overexpressed (0.5 mM IPTG), purified (anion exchange chromatography)

Columns and labels:
[1] = target: T1, Escherichia coli inclusion …; assay: co-sedimentation; sucrose density gradient centrifugation: IbpAEc (3 μM) and IbpBEc (7 μM) in buffer F incubated at room temperature for 30 min, 10% to 30% (w/v) sucrose gradient; SDS-PAGE with 6 M urea and CBB staining; details: both partners purified
[2] = target: the molecule itself; assay: sucrose density gradient centrifugation; purified IbpA (3 μM, dimeric units) alone in buffer F (50 mM Hepes-KOH pH 7.6, 0.1 M KCl, 5 mM DTT, 20 mM Mg-acetate) on a 10% to 30% (w/v) sucrose gradient, SW 41 Ti, 35,000 rpm, 4 °C, 80 min; fractions by SDS-PAGE with Western blot (anti-IbpA) or CBB staining; oligomeric state

Binder	binding result [1]	binding result [2]
B1	binds	binds
B2	binds	binds
